We go through 2 molecules from article PMC8184810, “Light regulates stomatal development by modulating paracrine signaling from inner tissues”.

Series [1] concerns the target T1, MBP-HY5 (Arabidopsis thaliana, UniProt O24646 1-168).
T1 sequence: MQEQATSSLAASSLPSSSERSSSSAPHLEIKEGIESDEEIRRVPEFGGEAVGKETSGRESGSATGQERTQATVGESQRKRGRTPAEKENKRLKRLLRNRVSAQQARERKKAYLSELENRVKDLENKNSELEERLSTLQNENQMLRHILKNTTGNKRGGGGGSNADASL
The experiment in a line: EMSA; EMSA: 20 fmol biotin probe, ~1 ug protein, 20 ul binding buffer (composition not given), on ice 1 h; pull-down: 10 mM Tris-HCl pH 7.5, 50 mM KCl, 5 mM MgCl2, 2.5% glycerol, 0.05% NP-40, 5 ug salmon sperm DNA, 10 ug BSA, 4 C 1 h. As to conditions: protein: recombinant; tags: N-terminal MBP (pETG-40A); chain copies: 2; blunt. (In general: In EMSA bound probe runs differently from free probe, usually more slowly.)

In series [2] the target is T1, MBP-HY5. The experiment in a line: pull-down; 5 mM MgCl2; salmon sperm DNA; EMSA: 20 fmol biotin probe, ~1 ug protein, 20 ul binding buffer (composition not given), on ice 1 h; pull-down: 10 mM Tris-HCl pH 7.5, 50 mM KCl, 5 mM MgCl2, 2.5% glycerol, 0.05% NP-40, 5 ug salmon sperm DNA, 10 ug BSA, 4 C 1 h. To be noted: protein: recombinant; tags: N-terminal MBP (pETG-40A); chain copies: 2; blunt.

B1: P2 (STOMAGEN promoter) (dsDNA)
DNA 1: TCCTCTGTATTTTCAAACTCTTATCTCTACGTGTGCACAAACCTCACCATTAGATGATAA
DNA 2: TTATCATCTAATGGTGAGGTTTGTGCACACGTAGAGATAAGAGTTTGAAAATACAGAGGA
For the molecule B1, in the series with MBP-HY5 [1], the binding result is on record as “binds”.

B2: mP2 (Z-box mutated) (dsDNA)
DNA 1: TCCTCTGTATTTTCAAACTCTTATCTCAAAAAATGCACAAACCTCACCATTAGATGATAA
DNA 2: TTATCATCTAATGGTGAGGTTTGTGCATTTTTTGAGATAAGAGTTTGAAAATACAGAGGA
Take B2: in the series with MBP-HY5 [2], the binding result was “no binding”.
